What was measured:
HTRA1 = HTRA1 (Homo sapiens, UniProt Q92743); conditions: binds covalently to the active-site serine of HTRA1; cited from earlier work
DQ elastin = assay: In vitro elastin degradation assay using DQ elastin; assay type: biochemical; conditions: DQ elastin substrate
Experimental: Therefore, studies were performed to determine whether HTRA1 degrades elastin, a major component of Bruch's membrane. Recombinant HTRA1 was incubated with dye-labeled elastin at 37° C. for two hrs and the fluorescence of the released elastin peptides was monitored at 513 nm. […] In an additional positive control assay, HTRA1 elastase activity was measured by fluorescence using various concentrations of elastase enzyme starting with 0.04 ng/well of porcine pancreatic elastase and 100 ng/well of ProteaImmun HtrA1. DQ Elastin substrate was 25 ug/ml.
Recombinant HtrA1 protein expressed and purified from Sf9 cells was purchased from ProteaImmun (Cat. #30600103). The HtrA1 elastase activity was measured using a fluorescent EnzChekElastase Assay Kit from Invitrogen (Cat. #E12056) using the protocol provided, except substrate concentration was 12.5 µg/mL. HtrA1 concentration was titrated from 200-12.5 ng/well in two-fold dilutions. Activity was measured in 30-minute increments for a total of 2 hours.
The explanation for the elastin degradation in both the Bruch's membrane and the choroid vessels in the HTRA1 mice is that the protease activity of overexpressed HTRA1, which is secreted from RPE, caused the degeneration. Since HTRA1 was not known to have elastase activity, an in vitro elastin degradation assay was performed using DQ elastin, a soluble elastin labeled with quenched BODIPY FL dye, as a substrate. Purified recombinant human HTRA1 degraded elastin with a specific activity of 4.4±0.8 u/mg (n=3). […] To eliminate the possibility that the depletion of the elastic layers of the choroidal vessels and Bruch's membrane was the result of downregulation of elastin expression, we analyzed the protein level of soluble elastin in the RPE/choroid of hHTRA1^+ and WT mice by western blot. […] This is similar to what has been observed in human donors with AMD and with aberrant choriocapillaris lobules.

HTRA1, sequence (Q92743 23-480): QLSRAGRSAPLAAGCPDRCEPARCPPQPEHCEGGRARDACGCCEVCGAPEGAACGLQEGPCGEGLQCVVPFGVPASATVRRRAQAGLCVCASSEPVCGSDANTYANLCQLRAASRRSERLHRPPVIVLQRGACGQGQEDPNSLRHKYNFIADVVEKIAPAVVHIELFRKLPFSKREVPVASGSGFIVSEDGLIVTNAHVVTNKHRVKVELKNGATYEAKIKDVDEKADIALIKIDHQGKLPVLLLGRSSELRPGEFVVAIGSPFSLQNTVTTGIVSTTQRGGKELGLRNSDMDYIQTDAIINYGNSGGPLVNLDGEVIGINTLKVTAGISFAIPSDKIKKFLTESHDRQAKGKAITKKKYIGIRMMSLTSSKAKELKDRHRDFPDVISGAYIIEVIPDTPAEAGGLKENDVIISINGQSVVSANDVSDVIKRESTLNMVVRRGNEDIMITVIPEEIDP

Row | Substance | IC50 (HTRA1) [nM] | specific activity of elastin degradation (DQ elastin) [u/mg] | elastase activity, times less than that of porcine pancreas elastase (DQ elastin) [times]
1 | DPMFKLboroV | 2600 | – | –
2 | porcine pancreas elastase: reference elastase enzyme | – | 135±5.5 | –
3 | recombinant human HTRA1: purified recombinant human HTRA1 serine protease | – | 4.4±0.8 | ~30
